Key:
poli_human POLI = biological target: T1, poli_human POLI (UniProt Q9UNA4)
T1 sequence: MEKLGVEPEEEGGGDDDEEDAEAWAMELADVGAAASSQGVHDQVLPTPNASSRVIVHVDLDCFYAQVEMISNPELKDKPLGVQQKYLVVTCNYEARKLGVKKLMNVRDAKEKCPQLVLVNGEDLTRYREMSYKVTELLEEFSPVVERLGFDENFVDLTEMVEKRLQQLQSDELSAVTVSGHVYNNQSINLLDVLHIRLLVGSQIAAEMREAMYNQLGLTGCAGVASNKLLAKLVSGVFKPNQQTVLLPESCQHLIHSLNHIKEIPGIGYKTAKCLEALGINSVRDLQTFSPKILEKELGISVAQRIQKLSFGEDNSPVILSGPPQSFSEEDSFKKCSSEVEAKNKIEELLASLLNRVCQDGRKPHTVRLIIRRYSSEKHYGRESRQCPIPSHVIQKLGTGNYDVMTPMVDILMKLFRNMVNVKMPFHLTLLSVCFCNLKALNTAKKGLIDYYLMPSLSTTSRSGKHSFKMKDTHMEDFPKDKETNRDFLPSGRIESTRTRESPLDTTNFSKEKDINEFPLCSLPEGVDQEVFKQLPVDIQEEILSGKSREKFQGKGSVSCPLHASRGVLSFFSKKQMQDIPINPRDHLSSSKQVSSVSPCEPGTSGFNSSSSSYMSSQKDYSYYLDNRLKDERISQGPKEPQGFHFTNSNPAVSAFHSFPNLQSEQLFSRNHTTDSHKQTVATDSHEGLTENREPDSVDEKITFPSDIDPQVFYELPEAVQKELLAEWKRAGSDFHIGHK

polh_human POLH = biological target: T2, polh_human POLH (UniProt Q9Y253)
T2 sequence: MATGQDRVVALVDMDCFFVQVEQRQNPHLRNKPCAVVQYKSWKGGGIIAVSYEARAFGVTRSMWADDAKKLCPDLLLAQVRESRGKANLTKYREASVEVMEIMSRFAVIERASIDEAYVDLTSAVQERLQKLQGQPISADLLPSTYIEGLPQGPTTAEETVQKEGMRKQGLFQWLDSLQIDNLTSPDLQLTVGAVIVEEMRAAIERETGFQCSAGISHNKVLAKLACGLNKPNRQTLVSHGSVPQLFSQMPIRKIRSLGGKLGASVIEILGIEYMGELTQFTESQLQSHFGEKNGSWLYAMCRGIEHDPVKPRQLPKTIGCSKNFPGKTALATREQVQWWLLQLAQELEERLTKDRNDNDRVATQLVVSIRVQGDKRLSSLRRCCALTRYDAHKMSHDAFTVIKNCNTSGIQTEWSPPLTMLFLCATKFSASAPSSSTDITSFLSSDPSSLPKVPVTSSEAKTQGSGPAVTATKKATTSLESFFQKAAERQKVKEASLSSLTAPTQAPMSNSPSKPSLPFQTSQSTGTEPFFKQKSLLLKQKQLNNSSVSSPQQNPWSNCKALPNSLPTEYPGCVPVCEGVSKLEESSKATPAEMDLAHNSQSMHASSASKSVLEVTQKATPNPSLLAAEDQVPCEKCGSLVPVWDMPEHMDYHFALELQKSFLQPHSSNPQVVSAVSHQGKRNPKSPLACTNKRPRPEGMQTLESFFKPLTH

Substance | effect of a mutation on the interaction (poli_human POLI) | effect of a mutation on the interaction (polh_human POLH)
Polyubiquitin-C (Homo sapiens) (from UniProt P0CG48) G75S | disrupting interaction | disrupting interaction
Polyubiquitin-C (Homo sapiens) (from UniProt P0CG48) G76S | disrupting interaction | disrupting interaction

From IntAct's records for PubMed 16763556
